Assay [1] concerns the target T1, CD124 (IL4-receptor) on 4T1 triple-negative breast cancer cells (mouse) (UniProt P16382).
T1 sequence: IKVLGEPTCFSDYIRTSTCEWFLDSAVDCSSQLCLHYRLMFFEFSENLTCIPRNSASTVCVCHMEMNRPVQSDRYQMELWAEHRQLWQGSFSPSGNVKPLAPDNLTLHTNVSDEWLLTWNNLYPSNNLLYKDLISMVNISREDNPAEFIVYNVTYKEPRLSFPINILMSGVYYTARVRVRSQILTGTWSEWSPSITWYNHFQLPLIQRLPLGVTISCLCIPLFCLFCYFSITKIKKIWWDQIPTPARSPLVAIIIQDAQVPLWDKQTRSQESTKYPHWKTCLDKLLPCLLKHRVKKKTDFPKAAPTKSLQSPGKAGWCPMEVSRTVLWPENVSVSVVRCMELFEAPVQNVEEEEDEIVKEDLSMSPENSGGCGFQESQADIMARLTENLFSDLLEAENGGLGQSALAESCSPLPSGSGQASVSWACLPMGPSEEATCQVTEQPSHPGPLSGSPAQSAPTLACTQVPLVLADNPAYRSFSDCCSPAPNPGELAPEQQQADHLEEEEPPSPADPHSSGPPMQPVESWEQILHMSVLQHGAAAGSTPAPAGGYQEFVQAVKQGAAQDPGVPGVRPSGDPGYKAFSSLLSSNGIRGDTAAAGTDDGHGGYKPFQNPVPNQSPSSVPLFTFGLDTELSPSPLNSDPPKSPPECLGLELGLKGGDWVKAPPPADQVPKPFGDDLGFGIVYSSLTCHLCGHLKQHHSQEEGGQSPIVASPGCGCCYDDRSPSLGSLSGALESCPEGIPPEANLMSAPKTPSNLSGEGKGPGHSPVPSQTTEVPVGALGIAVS
The assay is described as follows: cell-based or functional assay.

The target in assay [2] is IL-2 receptor (CD25) on HUT-102 and MT-2 cells (human) (UniProt P01589). Description: cell-based or functional assay.
Sequence of UniProt P01589 (P01589 22-272): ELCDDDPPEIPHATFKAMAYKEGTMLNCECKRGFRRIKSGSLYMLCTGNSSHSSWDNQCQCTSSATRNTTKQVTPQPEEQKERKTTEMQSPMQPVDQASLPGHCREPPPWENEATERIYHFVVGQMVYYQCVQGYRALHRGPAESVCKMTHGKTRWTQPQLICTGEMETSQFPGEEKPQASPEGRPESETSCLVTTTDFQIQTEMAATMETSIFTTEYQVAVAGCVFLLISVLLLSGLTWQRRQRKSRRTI

Turning to s-DAB1-389-mIL4-His6 (SEQ ID NO: 134), in assay [1], the IC50 for killing 4T1 cells (Trypan blue viability) came out at 10 pM and the IC50 of 4T1 cell migration inhibition (clonogenic assay, Giemsa staining) worked out at 800 pM.
Take “E. coli-derived classic Ontak (denileukin diftitox, SEQ ID NO: 10)”: the IC50 against HUT-102 T cell lymphoma cells (in vitro cell killing) in assay [2] amounted to 1.8 pM.
The substance “C. diphtheriae-derived s-Ontak-His6 (SEQ ID NO: 58)” displayed an MT-2 cell IC50 (earlier disclosed data) in assay [2] of 0.12 pM.
